Data as given in patent publication US20220054419A1.

Columns and labels:
Assay in all cases: cell-based or functional assay
[1] = biological target: hemagglutinin (HA) of A/Solomon Islands/3/06 (H1N1) on pseudotyped lentivirus (Influenza virus A/Solomon Islands/3/06 (H1N1))
[2] = biological target: hemagglutinin (HA) of A/Singapore/6/86 (H1N1) on pseudotyped lentivirus (Influenza virus A/Singapore/6/86 (H1N1)) (UniProt A3DRP0)
[3] = biological target: hemagglutinin (HA) of A/New York/653/96 (H1N1) on pseudotyped lentivirus (Influenza virus A/New York/653/96 (H1N1))
[4] = biological target: hemagglutinin (HA) of A/South Carolina/1/18 (H1N1) on pseudotyped lentivirus (Influenza virus A/South Carolina/1/18 (H1N1)) (UniProt Q9WFX3)
[5] = biological target: hemagglutinin (HA) of A/New York/146/00 (H1N1) on pseudotyped lentivirus (Influenza virus A/New York/146/00 (H1N1))
[6] = biological target: hemagglutinin (HA) of A/Beijing/262/95 (H1N1) on pseudotyped lentivirus (Influenza virus A/Beijing/262/95 (H1N1))
[7] = biological target: hemagglutinin (HA) of A/New York/8/06 (H1N1) on pseudotyped lentivirus (Influenza virus A/New York/8/06 (H1N1))
[8] = biological target: hemagglutinin (HA) of A/Hong Kong/117/77 (H1N1) on pseudotyped lentivirus (Influenza virus A/Hong Kong/117/77 (H1N1)) (UniProt P18875)
[9] = biological target: hemagglutinin (HA) of A/Iowa/43 (H1N1) on pseudotyped lentivirus (Influenza virus A/Iowa/43 (H1N1)) (UniProt A4GCK8)
[10] = biological target: hemagglutinin (HA) of A/New Jersey/76 (H1N1) on pseudotyped lentivirus (Influenza virus A/New Jersey/76 (H1N1))
[11] = biological target: hemagglutinin (HA) of A/Puerto Rico/8/34 (H1N1) on pseudotyped lentivirus (Influenza virus A/Puerto Rico/8/34 (H1N1)) (UniProt P03452)
[12] = biological target: hemagglutinin (HA) of A/New Caledonia/20/99 (H1N1) on pseudotyped lentivirus (Influenza virus A/New Caledonia/20/1999 (H1N1)) (UniProt Q289M7)
[13] = biological target: hemagglutinin (HA) of A/Fort Monmouth/1/47 (H1N1) on pseudotyped lentivirus (Influenza virus A/Fort Monmouth/1/47 (H1N1)) (UniProt A4U7A6)

Substance	Neutralization IC50, lentivirus pseudotype neutralization assay [1] [µg/mL]	Neutralization IC50, lentivirus pseudotype neutralization assay [2] [µg/mL]	Neutralization IC50, lentivirus pseudotype neutralization assay [3] [µg/mL]	Neutralization IC50, lentivirus pseudotype neutralization assay [4] [µg/mL]	Neutralization IC50, lentivirus pseudotype neutralization assay [5] [µg/mL]	Neutralization IC50, lentivirus pseudotype neutralization assay [6] [µg/mL]	Neutralization IC50, lentivirus pseudotype neutralization assay [7] [µg/mL]	Neutralization IC50, lentivirus pseudotype neutralization assay [8] [µg/mL]	Neutralization IC50, lentivirus pseudotype neutralization assay [9] [µg/mL]	Neutralization IC50, lentivirus pseudotype neutralization assay [10] [µg/mL]	Neutralization IC50, lentivirus pseudotype neutralization assay [11] [µg/mL]	Neutralization IC50, lentivirus pseudotype neutralization assay [12] [µg/mL]	Neutralization IC50, lentivirus pseudotype neutralization assay [13] [µg/mL]
monoclonal antibody 441D6	0.29	0.01	0.02	0.04	0.01	0.07	0.14	0.04	11.1	0.03	0.08	0.04	0.02
monoclonal antibody CH65 (anti-receptor binding site of HA)	1.3	< 0.005	< 0.005	0.57	0.03	0.01	0.02	0.97	> 50	> 25	0.44	0.01	5.86
monoclonal antibody FI6v3 (anti-HA stem region)	0.94	0.01	0.15	4.4	0.08	1.01	> 25	0.09	3.4	0.36	0.97	0.09	22.2
